# Source: article PMC2993699
# Assays:
# [1] = target: Pph with a C-terminal strep-tag and an N-terminal his-tag (His10-Ppr(Δ1-601)-StrepTag II, pET16b-Pph) (R. centenaria); experiment: SEC; crude soluble extract of E. coli C41 (DE3) with pET16b-Pph on Sephadex G-200, non-reducing conditions, 20 mM Tris pH 7.4, 40 mM NaCl, 20% glycerol; fractions by SDS-PAGE and Western blot against strep tag II
# [2] = target: R. centenaria CheW (Rc-CheW) containing an N-terminal his-tag (R. centenaria) (UniProt P72251); experiment: pull-down; as a1, residual ATP hydrolyzed by adding apyrase
# [3] = target: R. centenaria CheW (Rc-CheW) containing an N-terminal his-tag (R. centenaria) (UniProt P72251); experiment: pull-down; as a1, with increasing amounts of added ATP (0-20 mM)
# [4] = target: R. centenaria CheW (Rc-CheW) containing an N-terminal his-tag (R. centenaria) (UniProt P72251); experiment: pull-down; 50 μg purified his-Rc-CheW (bait) mixed with one in vitro translated [35S]-labelled prey, overnight at 37°C, bound to Cu(II)-Sepharose in 20 mM sodium phosphate pH 7.7, 200 mM NaCl, 50 mM imidazole; eluted with 500 mM imidazole; phosphorimaging; no ATP added (low ATP level, 2 mM, from the translation reaction)
# [5] = target: Pph with a C-terminal strep-tag and an N-terminal his-tag (His10-Ppr(Δ1-601)-StrepTag II, pET16b-Pph) (R. centenaria); experiment: resonant mirror spectroscopy (Iasys biosensor cuvette); purified Pph (50 μg/ml) immobilised on an aminosilane cuvette (via strep-tag to streptactin by the results); increasing concentrations of purified Rc-CheW, 30 minutes each; fractional saturation, Scatchard plot
# Sequence of UniProt P72251 (P72251 entry or part of it): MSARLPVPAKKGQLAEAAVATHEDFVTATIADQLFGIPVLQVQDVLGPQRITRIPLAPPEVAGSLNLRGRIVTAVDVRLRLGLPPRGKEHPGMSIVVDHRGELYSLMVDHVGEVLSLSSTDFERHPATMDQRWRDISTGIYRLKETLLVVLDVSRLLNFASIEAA
substance,measurement,setting,value
"Pph with a C-terminal strep-tag and an N-terminal his-tag (His10-Ppr(Δ1-601)-StrepTag II, pET16b-Pph) (domain or fragment)",stoichiometry N,[1],2
"histidine kinase domain Pph of Ppr, in vitro translated and [35S]-methionine labelled (from pSK4) (domain or fragment)",bound Pph with apyrase (% of input),[2],5%
same,Rc-CheW-bound Pph with added ATP (% of input),[3],24%
same,co-elution rate (% of input Pph),[4],13%
R. centenaria CheW (Rc-CheW) containing an N-terminal his-tag (from UniProt P72251 1-165) (natural protein),Kd,[5],0.13 µM
